According to IntAct's records for PubMed 25910212:

B1: Torsin-1A (Homo sapiens), O14656 (parent)
chain: MKLGRAVLGLLLLAPSVVQAVEPISLGLALAGVLTGYIYPRLYCLFAECCGQKRSLSREALQKDLDDNLFGQHLAKKIILNAVFGFINNPKPKKPLTLSLHGWTGTGKNFVSKIIAENIYEGGLNSDYVHLFVATLHFPHASNITLYKDQLQLWIRGNVSACARSIFIFDEMDKMHAGLIDAIKPFLDYYDLVDGVSYQKAMFIFLSNAGAERITDVALDFWRSGKQREDIKLKDIEHALSVSVFNNKNSGFWHSSLIDRNLIDYFVPFLPLEYKHLKMCIRVEMQSRGYEIDEDIVSRVAEEMTFFPKEERVFSDKGCKTVFTKLDYYYDD
partner: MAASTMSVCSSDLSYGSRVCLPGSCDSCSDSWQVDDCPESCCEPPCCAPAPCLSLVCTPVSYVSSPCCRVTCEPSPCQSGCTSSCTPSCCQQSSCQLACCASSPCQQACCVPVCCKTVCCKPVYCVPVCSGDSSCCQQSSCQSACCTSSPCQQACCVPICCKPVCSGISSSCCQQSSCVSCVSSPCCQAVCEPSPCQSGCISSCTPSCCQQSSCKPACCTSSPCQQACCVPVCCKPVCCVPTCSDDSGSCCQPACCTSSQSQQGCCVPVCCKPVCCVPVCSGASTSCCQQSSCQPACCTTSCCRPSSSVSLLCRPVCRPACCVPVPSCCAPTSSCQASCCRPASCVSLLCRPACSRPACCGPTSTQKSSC
B2: Keratin, type II cytoskeletal 2 epidermal (Homo sapiens), P35908 (parent)
chain: MSCQISCKSRGRGGGGGGFRGFSSGSAVVSGGSRRSTSSFSCLSRHGGGGGGFGGGGFGSRSLVGLGGTKSISISVAGGGGGFGAAGGFGGRGGGFGGGSSFGGGSGFSGGGFGGGGFGGGRFGGFGGPGGVGGLGGPGGFGPGGYPGGIHEVSVNQSLLQPLNVKVDPEIQNVKAQEREQIKTLNNKFASFIDKVRFLEQQNQVLQTKWELLQQMNVGTRPINLEPIFQGYIDSLKRYLDGLTAERTSQNSELNNMQDLVEDYKKKYEDEINKRTAAENDFVTLKKDVDNAYMIKVELQSKVDLLNQEIEFLKVLYDAEISQIHQSVTDTNVILSMDNSRNLDLDSIIAEVKAQYEEIAQRSKEEAEALYHSKYEELQVTVGRHGDSLKEIKIEISELNRVIQRLQGEIAHVKKQCKNVQDAIADAEQRGEHALKDARNKLNDLEEALQQAKEDLARLLRDYQELMNVKLALDVEIATYRKLLEGEECRMSGDLSSNVTVSVTSSTISSNVASKAAFGGSGGRGSSSGGGYSSGSSSYGSGGRQSGSRGGSGGGGSISGGGYGSGGGSGGRYGSGGGSKGGSISGGGYGSGGGKHSSGGGSRGGSSSGGGYGSGGGGSSSVKGSSGEAFGSSVTFSFR
partner: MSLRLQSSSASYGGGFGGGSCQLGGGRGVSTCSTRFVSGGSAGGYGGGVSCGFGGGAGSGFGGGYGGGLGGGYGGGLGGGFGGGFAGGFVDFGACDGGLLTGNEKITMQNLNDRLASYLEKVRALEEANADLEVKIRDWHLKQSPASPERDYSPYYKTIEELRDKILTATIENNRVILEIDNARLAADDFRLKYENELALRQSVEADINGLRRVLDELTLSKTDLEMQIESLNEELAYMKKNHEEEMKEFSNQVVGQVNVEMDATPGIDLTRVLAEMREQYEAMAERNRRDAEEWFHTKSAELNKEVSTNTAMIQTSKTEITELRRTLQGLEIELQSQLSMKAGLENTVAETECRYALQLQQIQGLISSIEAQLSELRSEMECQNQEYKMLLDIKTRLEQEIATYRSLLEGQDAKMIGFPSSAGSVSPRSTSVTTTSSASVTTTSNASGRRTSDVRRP
B3: Ketohexokinase (Homo sapiens), P50053-2 (parent)
chain: MEEKQILCVGLVVLDVISLVDKYPKEDSEIRCLSQRWQRGGNASNSCTVLSLLGAPCAFMGSMAPGHVADFVLDDLRRYSVDLRYTVFQTTGSVPIATVIINEASGSRTILYYDRSLPDVSATDFEKVDLTQFKWIHIEGRNASEQVKMLQRIDAHNTRQPPEQKIRVSVEVEKPREELFQLFGYGDVVFVSKDVAKHLGFQSAEEALRGLYGRVRKGAVLVCAWAEEGADALGPDGKLLHSDAFPPPRVVDTLGAGDTFNASVIFSLSQGRSVQEALRFGCQVAGKKCGLQGFDGIV
partner: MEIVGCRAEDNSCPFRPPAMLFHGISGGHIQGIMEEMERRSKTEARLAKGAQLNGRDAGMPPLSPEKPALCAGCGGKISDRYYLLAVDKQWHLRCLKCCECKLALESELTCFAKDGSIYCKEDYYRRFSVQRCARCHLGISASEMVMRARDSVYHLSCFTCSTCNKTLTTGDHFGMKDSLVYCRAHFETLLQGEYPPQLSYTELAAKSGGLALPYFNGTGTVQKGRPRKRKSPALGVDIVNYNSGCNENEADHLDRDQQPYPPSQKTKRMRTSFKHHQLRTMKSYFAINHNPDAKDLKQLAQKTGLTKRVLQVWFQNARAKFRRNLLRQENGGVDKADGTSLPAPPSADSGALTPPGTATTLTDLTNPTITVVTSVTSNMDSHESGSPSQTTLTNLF
B4: Emerin (Homo sapiens), P50402 (parent)
chain: MDNYADLSDTELTTLLRRYNIPHGPVVGSTRRLYEKKIFEYETQRRRLSPPSSSAASSYSFSDLNSTRGDADMYDLPKKEDALLYQSKGYNDDYYEESYFTTRTYGEPESAGPSRAVRQSVTSFPDADAFHHQVHDDDLLSSSEEECKDRERPMYGRDSAYQSITHYRPVSASRSSLDLSYYPTSSSTSFMSSSSSSSSWLTRRAIRPENRAPGAGLGQDRQVPLWGQLLLFLVFVIVLFFIYHFMQAEEGNPF
partner: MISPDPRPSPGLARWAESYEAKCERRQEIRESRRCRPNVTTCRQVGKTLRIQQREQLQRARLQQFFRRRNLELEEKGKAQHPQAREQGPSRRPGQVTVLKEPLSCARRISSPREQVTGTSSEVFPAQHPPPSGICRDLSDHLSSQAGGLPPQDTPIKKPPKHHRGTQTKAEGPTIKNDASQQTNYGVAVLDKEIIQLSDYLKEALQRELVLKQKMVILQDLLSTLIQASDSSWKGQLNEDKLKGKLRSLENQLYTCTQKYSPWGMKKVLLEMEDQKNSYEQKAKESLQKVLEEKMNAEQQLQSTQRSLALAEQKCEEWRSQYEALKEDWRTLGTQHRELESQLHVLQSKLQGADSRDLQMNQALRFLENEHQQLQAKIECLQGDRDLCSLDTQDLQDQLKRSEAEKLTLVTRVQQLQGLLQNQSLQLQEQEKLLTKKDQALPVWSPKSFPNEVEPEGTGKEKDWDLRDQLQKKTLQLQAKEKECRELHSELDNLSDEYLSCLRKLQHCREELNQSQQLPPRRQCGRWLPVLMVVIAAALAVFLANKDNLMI
B5: ATP synthase mitochondrial F1 complex assembly factor 2 (Homo sapiens), Q8N5M1 (parent)
chain: MWRSCLRLRDGGRRLLNRPAGGPSASMSPGPTIPSPARAYAPPTERKRFYQNVSITQGEGGFEINLDHRKLKTPQAKLFTVPSEALAIAVATEWDSQQDTIKYYTMHLTTLCNTSLDNPTQRNKDQLIRAAVKFLDTDTICYRVEEPETLVELQRNEWDPIIEWAEKRYGVEISSSTSIMGPSIPAKTREVLVSHLASYNTWALQGIEFVAAQLKSMVLTLGLIDLRLTVEQAVLLSRLEEEYQIQKWGNIEWAHDYELQELRARTAAGTLFIHLCSESTTVKHKLLKE
partner: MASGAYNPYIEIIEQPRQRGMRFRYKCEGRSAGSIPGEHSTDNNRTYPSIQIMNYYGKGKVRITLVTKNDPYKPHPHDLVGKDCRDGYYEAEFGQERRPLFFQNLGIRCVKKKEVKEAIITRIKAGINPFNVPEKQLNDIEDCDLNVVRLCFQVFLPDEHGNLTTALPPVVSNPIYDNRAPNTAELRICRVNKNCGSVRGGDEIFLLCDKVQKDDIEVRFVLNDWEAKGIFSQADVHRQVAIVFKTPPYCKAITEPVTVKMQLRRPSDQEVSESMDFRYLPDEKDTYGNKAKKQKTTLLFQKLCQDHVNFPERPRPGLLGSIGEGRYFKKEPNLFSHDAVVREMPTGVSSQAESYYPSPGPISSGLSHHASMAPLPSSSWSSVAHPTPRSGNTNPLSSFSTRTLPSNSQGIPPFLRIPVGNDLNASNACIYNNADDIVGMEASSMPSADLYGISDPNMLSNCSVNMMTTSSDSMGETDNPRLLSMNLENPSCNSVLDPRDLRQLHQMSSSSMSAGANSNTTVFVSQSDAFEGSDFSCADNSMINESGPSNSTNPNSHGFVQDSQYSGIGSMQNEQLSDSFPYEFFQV
B6: Dolichol-phosphate mannosyltransferase subunit 1 (Homo sapiens), O60762 (parent)
chain: MASLEVSRSPRRSRRELEVRSPRQNKYSVLLPTYNERENLPLIVWLLVKSFSESGINYEIIIIDDGSPDGTRDVAEQLEKIYGSDRILLRPREKKLGLGTAYIHGMKHATGNYIIIMDADLSHHPKFIPEFIRKQKEGNFDIVSGTRYKGNGGVYGWDLKRKIISRGANFLTQILLRPGASDLTGSFRLYRKEVLEKLIEKCVSKGYVFQMEMIVRARQLNYTIGEVPISFVDRVYGESKLGGNEIVSFLKGLLTLFATT
B7: DNA repair protein XRCC4 (Homo sapiens), Q13426 (parent)
chain: MERKISRIHLVSEPSITHFLQVSWEKTLESGFVITLTDGHSAWTGTVSESEISQEADDMAMEKGKYVGELRKALLSGAGPADVYTFNFSKESCYFFFEKNLKDVSFRLGSFNLEKVENPAEVIRELICYCLDTIAENQAKNEHLQKENERLLRDWNDVQGRFEKCVSAKEALETDLYKRFILVLNEKKTKIRSLHNKLLNAAQEREKDIKQEGETAICSEMTADRDPVYDESTDEESENQTDLSGLASAAVSKDDSIISSLDVTDIAPSRKRRQRMQRNLGTEPKMAPQENQLQEKENSRPDSSLPETSKKEHISAENMSLETLRNSSPEDLFDEI
B8: Phytanoyl-CoA dioxygenase, peroxisomal (Homo sapiens), O14832 (parent)
chain: MEQLRAAARLQIVLGHLGRPSAGAVVAHPTSGTISSASFHPQQFQYTLDNNVLTLEQRKFYEENGFLVIKNLVPDADIQRFRNEFEKICRKEVKPLGLTVMRDVTISKSEYAPSEKMITKVQDFQEDKELFRYCTLPEILKYVECFTGPNIMAMHTMLINKPPDSGKKTSRHPLHQDLHYFPFRPSDLIVCAWTAMEHISRNNGCLVVLPGTHKGSLKPHDYPKWEGGVNKMFHGIQDYEENKARVHLVMEKGDTVFFHPLLIHGSGQNKTQGFRKAISCHFASADCHYIDVKGTSQENIEKEVVGIAHKFFGAENSVNLKDIWMFRARLVKGERTNL

Variants of: B1
Settings: with kr107_human KRTAP10-7, P60409

Row | Variant | effect of a mutation on the interaction
1 | R288Q | with no effect
2 | D216H | with no effect

Variants of: B2
Settings: with KRT13, P13646

Row | Variant | effect of a mutation on the interaction
3 | G219D | with no effect
4 | I477N | disrupting interaction strength
5 | N186K | with no effect
6 | L484P | with no effect

Variants of: B3
Settings: with lhx9_human LHX9, Q9NQ69

Row | Variant | effect of a mutation on the interaction
7 | G40R | with no effect
8 | A43T | with no effect

Variants of: B4
Settings: with TRAF3IP3, Q9Y228

Row | Variant | effect of a mutation on the interaction
9 | S54F | with no effect
10 | D72V | with no effect
11 | P183H | with no effect
12 | P183T | with no effect

Variants of: B5
Settings: with REL

Row | Variant | effect of a mutation on the interaction
13 | W94R | disrupting interaction strength

Variants of: B6
Settings: with t23o_human TDO2, P48775
Sequence of t23o_human TDO2, P48775 (P48775 whole entry, looked up): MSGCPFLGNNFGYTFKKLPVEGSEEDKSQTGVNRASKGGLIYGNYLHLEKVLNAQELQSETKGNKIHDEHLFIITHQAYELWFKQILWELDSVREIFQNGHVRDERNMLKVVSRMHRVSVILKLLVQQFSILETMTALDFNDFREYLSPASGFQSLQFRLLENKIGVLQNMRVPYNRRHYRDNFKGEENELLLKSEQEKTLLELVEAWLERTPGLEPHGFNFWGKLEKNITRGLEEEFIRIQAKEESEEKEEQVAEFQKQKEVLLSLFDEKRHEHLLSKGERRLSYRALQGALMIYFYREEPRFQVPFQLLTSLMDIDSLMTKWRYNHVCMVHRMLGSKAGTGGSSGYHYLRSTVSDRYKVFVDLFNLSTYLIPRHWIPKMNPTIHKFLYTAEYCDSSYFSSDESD

Row | Variant | effect of a mutation on the interaction
14 | R92G | with no effect
15 | S248P | with no effect

Variants of: B7
Settings: with XRCC4, Q13426-3

Row | Variant | effect of a mutation on the interaction
16 | I134T | with no effect

Variants of: B8
Settings: with fam9b_human FAM9B

Row | Variant | effect of a mutation on the interaction
17 | N83Y | disrupting interaction strength
18 | P29S | with no effect
19 | N269H | with no effect
20 | I199F | disrupting interaction strength
